According to PMC10954734, “Structure of antiviral drug bulevirtide bound to hepatitis B and D virus receptor protein NTCP” (Nature Communications, 2024):

Experiments:
[1] = test system: SVPs from patient ID1 (HBV GtD); assay: Binding of nanodisc-reconstituted NTCP-eYFP to SVPs of patient ID1 (GtD); settings: 25–100 nM
Experimental: (§1) The lipids were then mixed with detergent-purified NTCP and incubated at room temperature for 5 min with gentle agitation. Next, membrane scaffold protein (MSP1D1) was added to the mixture and incubated for 20 min at room temperature. […] Bio-Beads were removed by passing through a gravity column (Bio-Rad), and the mixture was briefly spun at 4000 × g at 4 °C to remove excess lipids. […] Peak fractions containing nanodisc-reconstituted NTCP were collected and concentrated.
(§2) Subviral particles (SVPs) were isolated from plasma of two chronic HBV-infected patients by three consecutive ultracentrifugation steps according to published protocols[13]. Briefly, SVP were separated from virions using rate zonal ultracentrifugation through a sucrose density gradient. SVP-containing fractions were pooled and further purified using caesium chloride (CsCl) flotation ultracentrifugation. Pooled SVP-fractions were further purified using a second sucrose density gradient and concentrated by ultrafiltration. […] For fluorescence measurement, 100 μL HBS buffer was added to each well and the fluorescence intensity of eYFP was detected at 485 nm excitation and 535 nm emission on a fluorescence microplate reader (TECAN Life Sciences).

[2] = test system: SVPs from patient K826 (HBV GtA); assay: Binding of nanodisc-reconstituted NTCP-eYFP to SVPs of patient K826 (GtA); settings: 25–100 nM
Experimental: as §1, §2

B1: NTCP G158R: nanodisc-reconstituted NTCP-eYFP variant carrying the mutation G158R (protein)
chain: MEAHNASAPFNFTLPPNFGKRPTDLALSVILVFMLFFIMLSLGCTMEFSKIKAHLWKPKGLAIALVAQYGIMPLTAFVLGKVFRLKNIEALAILVCGCSPGGNLSNVFSLAMKGDMNLSIVMTTCSTFCALGMMPLLLYIYSRGIYDGDLKDKVPYKRIVISLVLVLIPCTIGIVLKSKRPQYMRYVIKGGMIIILLCSVAVTVLSAINVGKSIMFAMTPLLIATSSLMPFIGFLLGYVLSALFCLNGRCRRTVSMETGCQNVQLCSTILNVAFPPEVIGPLFFFPLLYMIFQLGEGLLLIAIFWCYEKFKTPKDKTKMIYTAATTEETIPGALGNGTYKGEDCSPCTA
modifications: left off: eYFP, C-terminal, kept | rho-1D4, C-terminal, state not stated
[1]
  binding to GtD SVPs (in words): abolished binding to the SVPs
[2]
  binding to GtA SVPs (in words): abolished binding to the SVPs
